# Results reported in the DeepSol protein solubility set.
# Assay: soluble on expression in E. coli; label from the status in PepcDB or PDB records
row,Sequence,soluble on expression in E. coli
1,MGSDKIHHHHHHMKIHFVGIGGIGMSAVALHEFSNGNDVYGSNIEETERTAYLRKLGIPIFVPHSADNWYDPDLVIKTPAVRDDNPEIVRARMERVPIENRLHYFRDTLKREKKEEFAVTGTDGKTTTTAMVAHVLKHLRKSPTVFLGGIMDSLEHGNYEKGNGPVVYELDESEEFFSEFSPNYLIITNARGDHLENYGNSLTRYRSAFEKISRNTDLVVTFAEDELTSHLGDVTFGVKKGTYTLEMRSASRAEQKAMVEKNGKRYLELKLKVPGFHNVLNALAVIALFDSLGYDLAPVLEALEEFRGVHRRFSIAFHDPETNIYVIDDYAHTPDEIRNLLQTAKEVFENEKIVVIFQPHRYSRLEREDGNFAKALQLADEVVVTEVYDAFEEKKNGISGKMIWDSLKSLGKEAYFVEKLPELEKVISVSENTVFLFVGAGDIIYSSRRFVERYQSSKSSPSRVLGSNK,soluble
2,MEFNLHAVSSEEKERDFDVVIVGAGAAGFSAAVYAARSGFSVAILDKAVAGGLTAEAPLVENYLGFKSIVGSELAKLFADHAANYAKIREGVEVRSIKKTQGGFDIETNDDTYHAKYVIITTGTTHKHLGVKGESEYFGKGTSYCSTCDGYLFKGKRVVTIGGGNSGAIAAISMSEYVKNVTIIEYMPKYMCENAYVQEIKKRNIPYIMNAQVTEIVGDGKKVTGVKYKDRTTGEEKLIETDGVFIYVGLIPQTSFLKDSGVKLDERGYIVVDSRQRTSVPGVYAAGDVTSGNFAQIASAVGDGCKAALSLYSDSISKK,soluble
3,MGSDKIHHHHHHPLGSPEAGDISEERQAFLRLTAVYSVMKDFRYTWSMQCFGDVLSNDATYSGSSNDAQTFTLLENYQYQADHTEILNKYRYSYQCINKANLFIRDMEMADDALFSKYDKEQMIGEAKFIRAYTYFELVKTFGGVPCYTGVLDLDHERLGRASVEEIYSVIEQDLNDAVSVLPKKSEVANYESSYAGRITKGAAIAMQTRIYLYEKKYDEVKKAFEKFQNECGGEYSLVAPEDYTWQFSLDGEHCSSSILEVNMYNSSTQSSYNVNNGNRHVLMSMPRNMTIGFGCAQPTQALADAYDAEGDVIRKKTTLLSTEEAIEIETAAKGDVAPVTDDRTGWYNRKLYLAPGQREENRGNNQPTNLRLIRLAEVYLNYAEACYFSGDIANAQKYLNEVRSHVNLAPKNHTGSQLFEDIMNERHLEFGMEGFRFFDVVRVGWGEKVFNGTKKAEFGAKTPFSAGAEVLPIPQTEIDISDGLITN,not soluble
4,ANEVNVYSYRQPYLIEPMLKNFEKDTGIKVNIIFADKGLVDRVKQEGELSPADVLLTVDISRVMEIVNADLAQKIDSKVLEKNIPAQFRDSNDQWFGLTTRARVIYTSKDRVGKLPAGFDYLDLAKPEYKGKVCVRSGKNSYNVSLFAAMIEHYGIEKTKAFLEGLKANLARKPQGGDRDQVKAIKEGICDYSIGNSYYYGKMLDDEKQKSWAEAAIINFPSGEHGTHKNISGVVIAKHSPNKANAVKLIEYLSGEKAQGLYAELNHEYPVKEGIEPSAIVKGWGTFKSDTIKLEDIAKNYEAALKLVDEVKFDDFSEKK,soluble
5,MGSDKIHHHHHHTSEEREVFENQEGMHRLIPLIEAQTEEDLTPTMREYFAQIREYRKTPHVKGFGWFGNWTGKGNNAQNYLKMLPDSVDFVSLWGTRGYLSDEQKADLKFFQEVKGGKALLCWIIQDLGDQLTPKGLNATQYWVEEKGQGNFIEGVKAYANAICDSIEKYNLDGFDIDYEPGYGHSGTLANYQTISPSGNNKMQVFIETLSARLRPAGRMLVMDGQPDLLSTETSKLVDHYIYQAYWESSTSSVIYKINKPNLDDWERKTIITVEFEQGWKTGGITYYTSVRPELNSMEGNQILDYATLDLPSGKRIGGIGTYHMEYDYPNDPPYKWLRKALYFGNQVYPGKFD,not soluble
6,MAHHHHHHMLHNDKKNPREALDEEKPRKSNPGEVGTHRKARDTKGNKNKSGEGHITKVEGKADCEPHDVKRKGEKDKVLIQCKELQRKELEALKLIYVKDKELAIQNENDEKRDTIIHMHLNDENISDNVINLTFELPKDYPLKSFLLININVKNFTPDMNNYVNQEVYKDMPNYIAHENSILSIIYRINELVENIQNRKETLVDQSYSSSEEREENAEEEAFDSSKDQLIKDHVTFLYCSGMTYSQHRRVLARRLCYSHHILSLVKRTCIIKWAKELKIGGYSKIGYPGIIICEGPKEEVDFYINSLNKLRWKHFDCRGMDDIILKEYEDLDDARVLPKTMYELDPKGMSTLSNICTECGLRDLFLTSMKIYHS,not soluble
7,AIAPTGEDNIVVPPAFDGESVSKNKEIYVTFGVDVDAVAGWLGSYGGEDSPFDISRGICAAEVGVPRLLELFRRFDLKTTWFLPGHSVESFPLQMRQVVAAGHEVGAHGYSHENPVRMTPKQEEDVLALSVQILENLTGKKPKGYVAPWWELSAATPELLLRYGFKYDHSQGHHDFQPYYARTAEKWTNIDYSKPARDWMKPLDRGQSVDLVEIPANWYVDDLPPMMFIKSAPNSHGFMNPRDIEDLWRDQFEWVYREYNFAVFPITIHPDVSGRPQVLLMLERFISYIRRFPGVHWTTMEEVAQIFRNKQPFLNA,soluble
8,TLYDKVWDQHKVTTLPNGQDQLFVGLHLIHEVTSPQAFGMIKERGLEVARPDLTHATVDHIVPTANQDRPYSDDAAETMMAELEENVRDAGIQFSDPTTGDQGIVHVIGPEQGITQPGKTIVCGDSHTSTHGAFGALAFGIGTSQIRDVLATQTIAMEKQKV,not soluble
9,GPGSMQTSQSLHTAPAEKEVEAPPQLPLTDGRCYACRRCRRILSEVQWYATGCVECSATMGVPDRDSLLDFATPHFHNFIGLIAPGQSWVARLIMKSREPTNGIFAETLSDDEPEDEENEIEPYVGDADEEEGPALLDGEDGAAEPVHELAAEAPE,soluble
10,MSLTKSYAEEQKRSVSEKLLKEKKLSLILDLDGTIVFTNPELCIPLESEEEPITPEQGFYFEIPEQNAKVFIRFRDGIVTFMEKVSKLYDIHVVTLGQKEYAFAIVNAINKLRNIPFITGDLVTAEDCSSVIVCDEKDTNDGLIDREETNERRSVKRSIPTMGKEEMQVIVDDRIDVWDNKNVVQICEYVPSTNQVDTELVRVTEVLQNIYTKFYDEHIEDVKEILHLFRKKILENKNLYFNREGHHHHHH,soluble
11,MSLKLIGIVGSNADSSYNRLLLQYIGKEFYKMFDLEILEIKDIPMFNQSKDQTNSVLIQNMNRKILQADGVIIATPEHNHTIPAGLKSVLEWLSFKIHPLENKPVMIVGCSYYDQGTSRAQLHLRQILDAPGVNAIVMPGNEFLLGKAKEAFDENGNLIAEGTRQFLESTLQKFVEFIDVISKLEGAKPKDLPEDLHAKGTIETTIEGVDMAADDWVEQAAEAVQAVEGDTYVKLDRGILTVDQLNYFLKSMPMELTYADSNNQFLYYNKKMAAEEMFAKRQPGQVGNPLANCHPPKALKNVEWVIQQLRSGKTDAIRVHVPMHGPDTYVVHNYQAMYDDNGNYAGINEYILDFKPIVDWYLKQTGQELVGGKNVDAVSGASKKEAPETADSVSSASVHEEESATEKPTVDSVSSASIKEEGHHHHHH,soluble
12,MGHHHHHHSHMSEPLCTSRPVLLPLNLKNIAPGRCISLTPFGHTDNLGFQCETCTDPNLNKSIPPKLEDPAFSKNELCSVTLTFYQQAEQVIQHKQFYLSLLNLSMDAVRNSLTQPGLLYCYLVTKAFMLEGFPIFFEETNGMLGLYLVFRRDLLHLHESYLRLLIDNLGNYDISVDSVGRSYIIKLCPVGNVSRIPTIPADNVCLAVNNLDYGDDVKASWIECFNIVSRLS,soluble
13,MDAIMMEHRNDFWVFGYGSLMWRPGFAHVETVRARLHGYRRSLCIYSHVHRGTPDHPGLVLGLDTGGSCLGIAFRVPGDMTDEVMTYLREREMANKVYHEKKLHLRLADGRIVEAVAYVADRRHRQYAGRMTSEKAAAIIASAQGESGANIDYVTNTLMHLRNMRVRDHALEHINELVLAAASRQANNAALEHHHHHH,soluble
14,MGSDKIHHHHHHVKKLLNTLFINQSDSYLALDGGNVLVKADGQVLGRVPLHNLEGIVAFGYTGASPALMGHCAENGIALTFMTKNGRFLARVIGESRGNVVLRKTQYRRSDDEVASARLAKNFILGKLYNQKWMLERMTRDYPLRLDVERFKTTSQDMTETMREIQVCENLERLRGLEGTIAVRYNRLFDSMILQQKEDFHFKGRTRRPPLDRVNAMLSFAYSLLARDVSAALEAVGLDAYVGFLHRERPGRASLALDVMEELRGIYADRFVLSLINKKVIQGKDFLQKENGAVIMTEEGRKTFLTAWQKKKQETIQHPYLKEKMMWGLVPYEQALLLARHLRDDLEAYPPFLYK,not soluble
15,MGSDKIHHHHHHGCSFLIKEVNVKQENEAGEMVAYIKAGEIATFTFSGEINIDGDASNETFIVGFLAPRSWNVRQNATVTYREDRYETEVDHKMTVIPDTEQPANYKGMSWSAALKKKYGVRGNVLNDMEWIAFKSDNYPSVNGTIHYTVTIKCNSGKSNLKFRPSFFINHSSDGIGGDEAHYSVKDADDCFEVVEGSGTVIDFCSTHYYQIEPLSALQDDYVTFTFQGDINTNELIKAENVYIEATAYTIEGKIYTVNEKSAKTLMKRETKLPRYNVTLWPGGFFNIPDGETISRIEYIFTNEDGTVSISQSDDSRDNEGEEVEEGIKEPFVFEFQCE,not soluble
16,MAHHHHHHMGTLEAQTQGPGSMLNKRKFYINGLWDDPSTPHDLYVIDPSTEEACAVISLGSTRDADKAINAAKKAFQTWKTTSPHERLGFVEKILEIYEKRSSDMAKTISMEMGAPIDMALNAQTATGSSHIRNFIKAYKEFSFQEALIEGNEQAILHYDAIGVVGLITPWNWPMNQVTLKVIPALLAGCTMVLKPSEIAPLSAMLFAEILDEAALPSGVFNLINGDGANVGSYLSAHPDLEMISFTGSTRAGKDISKNASNTLKRVCLELGGKGANIIFADADIDALQRGVRHCFYNSGQSCNAPTRMLVEQAIYDKAIKTAKDIAEKTQVGPGHQTGNHIGPVVSKEQYDKIQDLIQSGIDEGATLVTGGTGLPMGMERGYYVRPTVFADVKPHMRIFREEIFGPVLSLLPFNTEDEAVTLANDTEYGLTNYIQSQDRSKCRRIAAQVRSGMVEVNGHELPGGSYFGGVKFSGRAREGGLWGIKEFLDTKAISYW,soluble
17,MASYPCHQHASAFDQAARSRGHNNRRTALRPRRQQEATEVRPEQKMPTLLRVYIDGPHGMGKTTTTQLLVALGSRDDIVYVPEPMTYWRVLGASETIANIYTTQHRLDQGEISAGDAAVVMTSAQITMGMPYAVTDAVLAPHIGGEAGSSHAPPPALTLIFDRHPIAALLCYPAARYLMGSMTPQAVLAFVALIPPTLPGTNIVLGALPEDRHIDRLAKRQRPGERLDLAMLAAIRRVYGLLANTVRYLQCGGSWREDWGQLSGTAVPPQGAEPQSNAGPRPHIGDTLFTLFRAPELLAPNGDLYNVFAWALDVLAKRLRSMHVFILDYDQSPAGCRDALLQLTSGMVQTHVTTPGSIPTICDLARTFAREMGEAN,soluble
18,MGSDKIHHHHHHMIEDNMKLKTGIPALDRILGGGFEKGCNIALVGGMDNDHILLTHQLTNAFLSSGKKVLLVELRQDPASLIKWLSQYNINYEEYLEDGDLKILDGFSNLYSPASISGPDVLPNPLDLGITTAIIRDNVSKEKYDILVFDDITSLYALQTDYKAYVRVIVRLTNSIRKLGASSLVAINSDVLSIQDLSMILMPFEYLIEIREGMIRFKRSFSFINVPGVPYVKTNKGIIPIEDVLKDAVSIRDSLVLTSDGVLKLGEGRVQLIGETSERSLIEFVYRFLGPEKGREFLYGWGRHEVEHLEIPKIESVEEIKEILEEAFEVTRSTGGGILRIVEATKDIIIVEGKNLFPHIRNFPYPAHVHYAGYMAKLLEKATGERWEGEEIKCESQTNDKCIFILRRV,not soluble
